What all share (test): native MS
Assay [1] addresses human Cdc37 (human) (UniProt Q16543).
The target is the same in assay [2]. The source holds these as a separate data set.
The target of assay [3] is His6-tagged kinase domain of B-Raf (human) (UniProt P15056).
Assay [4] has as its target T1, human Cdc37 (human), Q16543.
T1 chain: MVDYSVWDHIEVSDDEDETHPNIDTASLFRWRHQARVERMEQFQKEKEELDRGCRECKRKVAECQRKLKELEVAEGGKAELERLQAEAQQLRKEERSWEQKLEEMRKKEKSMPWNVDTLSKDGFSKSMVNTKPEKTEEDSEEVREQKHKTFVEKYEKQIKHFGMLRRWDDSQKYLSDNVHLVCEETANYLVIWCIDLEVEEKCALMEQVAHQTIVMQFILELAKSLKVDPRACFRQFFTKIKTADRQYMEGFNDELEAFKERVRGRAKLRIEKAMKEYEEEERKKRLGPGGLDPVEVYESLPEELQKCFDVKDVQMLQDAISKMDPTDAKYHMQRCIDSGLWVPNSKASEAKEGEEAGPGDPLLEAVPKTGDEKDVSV
The following applies: remark: other sources report otherwise.

In assay [5] the target is His6-tagged kinase domain of B-Raf (human, UniProt P15056 457-717).
Sequence of His6-tagged kinase domain of B-Raf (P15056 457-717): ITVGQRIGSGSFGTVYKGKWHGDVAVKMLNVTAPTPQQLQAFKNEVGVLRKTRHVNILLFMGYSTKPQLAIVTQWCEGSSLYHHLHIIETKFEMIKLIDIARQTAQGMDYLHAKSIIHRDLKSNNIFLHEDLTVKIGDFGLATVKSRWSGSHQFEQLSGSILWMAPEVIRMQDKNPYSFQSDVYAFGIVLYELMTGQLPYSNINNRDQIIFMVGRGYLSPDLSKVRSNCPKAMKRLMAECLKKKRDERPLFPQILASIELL

Where two headings read alike, the source gives them in different places.

The stoichiometry N is a count of units in the complex or per binding partner.

Sequence of His6-tagged kinase domain of B-Raf (human) (P15056 457-717): as above

As for “Spodoptera frugiperda Hsp90 homologue (natural protein)”, the stoichiometry N (Hsp90 per Cdc37) in assay [1] and in assay [2] was 2 throughout. The molecule further came in with a stoichiometry N (Hsp90 per B-Raf) in assay [3] of 2.

B1: human Cdc37, Q16543 1-378 (natural protein)
chain: MVDYSVWDHIEVSDDEDETHPNIDTASLFRWRHQARVERMEQFQKEKEELDRGCRECKRKVAECQRKLKELEVAEGGKAELERLQAEAQQLRKEERSWEQKLEEMRKKEKSMPWNVDTLSKDGFSKSMVNTKPEKTEEDSEEVREQKHKTFVEKYEKQIKHFGMLRRWDDSQKYLSDNVHLVCEETANYLVIWCIDLEVEEKCALMEQVAHQTIVMQFILELAKSLKVDPRACFRQFFTKIKTADRQYMEGFNDELEAFKERVRGRAKLRIEKAMKEYEEEERKKRLGPGGLDPVEVYESLPEELQKCFDVKDVQMLQDAISKMDPTDAKYHMQRCIDSGLWVPNSKASEAKEGEEAGPGDPLLEAVPKTGDEKDVSV
modifications: here or on the partner: phosphoserine at 13 (pSer 13); phosphoserine at 13 (pSer 13)
As for B1, in assay [4], the stoichiometry N (Cdc37 chains in the oligomer) is 2.

B2: human Cdc37 (natural protein, UniProt Q16543 1-378, looked up)
chain: MVDYSVWDHIEVSDDEDETHPNIDTASLFRWRHQARVERMEQFQKEKEELDRGCRECKRKVAECQRKLKELEVAEGGKAELERLQAEAQQLRKEERSWEQKLEEMRKKEKSMPWNVDTLSKDGFSKSMVNTKPEKTEEDSEEVREQKHKTFVEKYEKQIKHFGMLRRWDDSQKYLSDNVHLVCEETANYLVIWCIDLEVEEKCALMEQVAHQTIVMQFILELAKSLKVDPRACFRQFFTKIKTADRQYMEGFNDELEAFKERVRGRAKLRIEKAMKEYEEEERKKRLGPGGLDPVEVYESLPEELQKCFDVKDVQMLQDAISKMDPTDAKYHMQRCIDSGLWVPNSKASEAKEGEEAGPGDPLLEAVPKTGDEKDVSV
modifications: phosphoserine at 13 (pSer 13)
Regarding B2, the “stoichiometry N” value in assay [5] stood at 1 Cdc37 per B-Raf.

For the origin of these results see PMC5704897 (Molecular cell, 2006).
